Measured values: the Human Domainome abundance scans (Beltran et al. 2025)
± gives the uncertainty stated by the source.

B1: SH3 and PX domain-containing protein 2B, residues 155 to 209; numbered along this chain, A1X283 (parent)
chain: EQYVVVANYQKQESSEISLSVGQVVDIIEKNESGWWFVSTAEEQGWVPATCLEGQ

Variants of: B1
Experiment: abundance fitness (aPCA) (normalised: wild type 0, dead -1); higher = more abundant; growth selection in yeast, the domain comes from the species named
Settings: Homo sapiens

With EQYVVVFNYQKQESSEISLSVGQVVDIIEKNESGWWFVSTAEEQGWVPATCLEGQ [A7F] as the variant, how does the abundance fitness read?
Its abundance fitness is -0.076 ± 0.17.

Which abundance fitness does the source give for EQYVVVWNYQKQESSEISLSVGQVVDIIEKNESGWWFVSTAEEQGWVPATCLEGQ [A7W] here?
Its abundance fitness is -0.286 ± 0.11.

For EQYVVVANYQKQESSEISLSVGQVVDIIEKNESGWWFVSYAEEQGWVPATCLEGQ [T40Y], which abundance fitness is on record?
The abundance fitness was -0.151 ± 0.18.

With EQYVVVANYQKQESSEISLSVGQVVDIIEKNESGWWFVSGAEEQGWVPATCLEGQ [T40G] as the variant, how does the abundance fitness read?
Its abundance fitness is -0.19 ± 0.059.

Which abundance fitness does the source give for EQYVVVANYQKQESSEISLSVGQVVDIIEKNESGWWFVSTAEEQGWVPATCLEGD [Q55D] here?
The abundance fitness was -0.034 ± 0.16.

Which abundance fitness does the source give for EQYVVVANYQKQESSEISLSVGQVVDIIEKNESGWWFVSTAEEQGWVPATCLEGG [Q55G] here?
The abundance fitness was -0.229 ± 0.16.

For EQYVVVANYQKQESSEISLSVGQVVDIIEKNESGWWFVSTAEEGGWVPATCLEGQ [Q44G], which abundance fitness is on record?
The abundance fitness was -0.151 ± 0.061.

Which abundance fitness does the source give for EQYVVVANYQKQESSEISLSVGQVVDIIEKNESGWWFVSTAEETGWVPATCLEGQ [Q44T] here?
Its abundance fitness is -0.101 ± 0.11.

For EQYVVVANYQKQESSEISLSVGQVVDIIEKNESGWWFVSTAEECGWVPATCLEGQ [Q44C], which abundance fitness is on record?
The abundance fitness was -0.216 ± 0.13.

Which abundance fitness does the source give for EQYVVVANYQKQESSEISLSVGQVRDIIEKNESGWWFVSTAEEQGWVPATCLEGQ [V25R] here?
Its abundance fitness is -0.945 ± 0.1.

For EQYVVVANYQKQESSEISLSVGQGVDIIEKNESGWWFVSTAEEQGWVPATCLEGQ [V24G], which abundance fitness is on record?
The abundance fitness was -0.157 ± 0.074.

Which abundance fitness does the source give for EQYVVVANYQKQESSEISLSVGQVVDIIEKNESGWWFVSTAPEQGWVPATCLEGQ [E42P] here?
The abundance fitness was -0.431 ± 0.097.

With EQYVVVANYQKQESSEISLSVGQVVDIIEKNESGWWFVSTAWEQGWVPATCLEGQ [E42W] as the variant, how does the abundance fitness read?
The abundance fitness was -0.118 ± 0.079.

With EQYVVVANYQKQESSEISLSVGQVVDIIEKNESGWWFVSTAAEQGWVPATCLEGQ [E42A] as the variant, how does the abundance fitness read?
Its abundance fitness is -0.057 ± 0.077.

Which abundance fitness does the source give for EQYVVVANYQKQESSEISLSVGQVVDIIEKFESGWWFVSTAEEQGWVPATCLEGQ [N31F] here?
The abundance fitness was -0.259 ± 0.12.

For EQYVVVANYQKQESSEISLSVGQVVDIREKNESGWWFVSTAEEQGWVPATCLEGQ [I28R], which abundance fitness is on record?
Its abundance fitness is -0.211 ± 0.073.

For EQYVVVANYQKQESSEISLSVGQVVDISEKNESGWWFVSTAEEQGWVPATCLEGQ [I28S], which abundance fitness is on record?
The abundance fitness was -0.337 ± 0.087.

For EQYVVVANYQKQESSEISLSVGQVVDIVEKNESGWWFVSTAEEQGWVPATCLEGQ [I28V], which abundance fitness is on record?
The abundance fitness was 0.027 ± 0.073.

Which abundance fitness does the source give for EQYVVVANYQKQESSEISLSVGQVVDIIEKNESGWWFVSTAEEQGRVPATCLEGQ [W46R] here?
The abundance fitness was -0.17 ± 0.083.

With EQYVVVANYQKQESSEISLSVGQVVDIIEKNESWWWFVSTAEEQGWVPATCLEGQ [G34W] as the variant, how does the abundance fitness read?
Its abundance fitness is -0.708 ± 0.13.

For EQYVVVANYQKQESSEISLSVGQVVDIIEKNESFWWFVSTAEEQGWVPATCLEGQ [G34F], which abundance fitness is on record?
Its abundance fitness is -0.598 ± 0.16.

For EQYVVVANYQKQESSEISLSVGQVVDIIEKNESYWWFVSTAEEQGWVPATCLEGQ [G34Y], which abundance fitness is on record?
The abundance fitness was -0.492 ± 0.16.

For EQYVVVANYQKQESSEISLSVTQVVDIIEKNESGWWFVSTAEEQGWVPATCLEGQ [G22T], which abundance fitness is on record?
The abundance fitness was -0.588 ± 0.12.

Which abundance fitness does the source give for EQYVVVANYQKQESSEISLSVEQVVDIIEKNESGWWFVSTAEEQGWVPATCLEGQ [G22E] here?
Its abundance fitness is -0.673 ± 0.11.

With EQYVVVANYQKQESQEISLSVGQVVDIIEKNESGWWFVSTAEEQGWVPATCLEGQ [S15Q] as the variant, how does the abundance fitness read?
The abundance fitness was 0.103 ± 0.12.

With EQYVVVANYQKQESDEISLSVGQVVDIIEKNESGWWFVSTAEEQGWVPATCLEGQ [S15D] as the variant, how does the abundance fitness read?
The abundance fitness was 0.02 ± 0.15.

With EQYVVVANYQKQNSSEISLSVGQVVDIIEKNESGWWFVSTAEEQGWVPATCLEGQ [E13N] as the variant, how does the abundance fitness read?
The abundance fitness was -0.046 ± 0.16.

With EQYVVVANYQKQCSSEISLSVGQVVDIIEKNESGWWFVSTAEEQGWVPATCLEGQ [E13C] as the variant, how does the abundance fitness read?
Its abundance fitness is -0.19 ± 0.1.

For EQYVVVANYQKQESSEISLSVGQVVDIIEKNESGWWHVSTAEEQGWVPATCLEGQ [F37H], which abundance fitness is on record?
The abundance fitness was -0.068 ± 0.12.

Which abundance fitness does the source give for EQYVVAANYQKQESSEISLSVGQVVDIIEKNESGWWFVSTAEEQGWVPATCLEGQ [V6A] here?
The abundance fitness was 0.049 ± 0.087.

For EQYVVVANYTKQESSEISLSVGQVVDIIEKNESGWWFVSTAEEQGWVPATCLEGQ [Q10T], which abundance fitness is on record?
Its abundance fitness is -0.058 ± 0.13.

With EQYVVVANYQKQESSEISLSVGQVVDIIEKNESGYWFVSTAEEQGWVPATCLEGQ [W35Y] as the variant, how does the abundance fitness read?
The abundance fitness was -0.22 ± 0.15.

Which abundance fitness does the source give for EQYVVVANYQKQESSEISLSVGQVVDIIEKNESGMWFVSTAEEQGWVPATCLEGQ [W35M] here?
Its abundance fitness is 0.027 ± 0.085.

With EQYVVVANYQKQESSEISLPVGQVVDIIEKNESGWWFVSTAEEQGWVPATCLEGQ [S20P] as the variant, how does the abundance fitness read?
The abundance fitness was -0.536 ± 0.13.

With EQYVVVANYQKQESSEISLFVGQVVDIIEKNESGWWFVSTAEEQGWVPATCLEGQ [S20F] as the variant, how does the abundance fitness read?
The abundance fitness was -0.085 ± 0.1.

For EQYVVVANYQKQESSEISLKVGQVVDIIEKNESGWWFVSTAEEQGWVPATCLEGQ [S20K], which abundance fitness is on record?
Its abundance fitness is -0.075 ± 0.11.

Which abundance fitness does the source give for EQYVVVANYQKQESSEISDSVGQVVDIIEKNESGWWFVSTAEEQGWVPATCLEGQ [L19D] here?
Its abundance fitness is -0.894 ± 0.28.

Which abundance fitness does the source give for EQYVVVANYQKQESSEISTSVGQVVDIIEKNESGWWFVSTAEEQGWVPATCLEGQ [L19T] here?
Its abundance fitness is -0.604 ± 0.089.

With EQLVVVANYQKQESSEISLSVGQVVDIIEKNESGWWFVSTAEEQGWVPATCLEGQ [Y3L] as the variant, how does the abundance fitness read?
The abundance fitness was -0.237 ± 0.077.

Which abundance fitness does the source give for EQYVVVANYQKQESSEISLSVGQVVDIIEKNESGWWFVSTAEEQGWVPAGCLEGQ [T50G] here?
The abundance fitness was 0.001 ± 0.083.

Which abundance fitness does the source give for EQYVVVANYQKQESSEISLSVGQVVDIIEKNESGWWFVSTAEEQGWVPACCLEGQ [T50C] here?
The abundance fitness was -0.144 ± 0.16.

For EQYVVVANYQKQESSEISLSVGQVVDIIEKNESGWWFVSTAEEQGWVPAFCLEGQ [T50F], which abundance fitness is on record?
Its abundance fitness is -0.337 ± 0.14.

With IQYVVVANYQKQESSEISLSVGQVVDIIEKNESGWWFVSTAEEQGWVPATCLEGQ [E1I] as the variant, how does the abundance fitness read?
Its abundance fitness is -0.299 ± 0.33.

With EQYVVVANYQKQESSEISLSVGQVVDIIEKNESGWWFVSTLEEQGWVPATCLEGQ [A41L] as the variant, how does the abundance fitness read?
The abundance fitness was -0.041 ± 0.071.

For EQYVVVANYQKQESSEISLSVGQVVDIIEKNESGWWFVSTNEEQGWVPATCLEGQ [A41N], which abundance fitness is on record?
Its abundance fitness is -0.244 ± 0.14.

For EQYVVVANYQKQESSEISLSVGQVVDIIEKNESGWWFVSTKEEQGWVPATCLEGQ [A41K], which abundance fitness is on record?
Its abundance fitness is -0.157 ± 0.11.

For EQYVVVANYQKSESSEISLSVGQVVDIIEKNESGWWFVSTAEEQGWVPATCLEGQ [Q12S], which abundance fitness is on record?
The abundance fitness was -0.038 ± 0.073.

For EQYVVVANYQKNESSEISLSVGQVVDIIEKNESGWWFVSTAEEQGWVPATCLEGQ [Q12N], which abundance fitness is on record?
Its abundance fitness is -0.183 ± 0.14.
